# Measurements as given in a protein production outcome set (Wang et al. 2014).
# Assay: label from the status in PepcDB records
# 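Note: failed if final PepcDB status was selected cloned or expressed and not failed if soluble or beyond.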
row,Sequence,protein production
1,MELWIGITFASAFLQNLRSTLQKHLKGMMGTTGATFVRFVFGMPFALAYLAFLHLGLGRPLPVPNMSFAGWATVGAMAQIAATFLLVHLFSFRNFAVGTAYSRTEPAQAALFALIFIGESITGGTLAAIAISVAGVMLISVARTQVTPASFLTSIFSRTAGIGLASGAFFGLSSVAYRSASLALAPSLPAPDAMMQAGFTLVVVIVMQTVSMFLWIIWREREELPRIAKVWKPSLAVGFVGATASFGWFTAMTLQQAAVVKALAQVEMLFAFASTVLFFKEKINRLELSGCMLIVVGVLSLLAFG,failed
2,MAPEPLSAAGQNLIDTATSVINGIPVSDFYSVASAAISDDGRVFSGVNVYHFNGGPCAELVVLGVAAAAGATKLTHIVAIANEGRGILSPCGRCRQVLADLHPGIKAIVIGKEGPKMVAVEELLPSIYAWDKDYDRI,not failed
3,MHKEIAKELLLLAGGKNNIISISHCTTRLRFDVKDETKIDIHAIENLQGVQGTFFRYGLFQIIFGAGVVNKIYKEVVHVWETAPSEEPVHQKKASRKLNPAAAFAKTLSDI,failed
4,QHTLKQFAADSALTTTTPLCSEVPLFDINALGDWTYLGTSLPAKFAKLFASILHCIDDEYFLITPVEKVRVQVEDAPLLIVDFERAQPHSLLNVSTSIGTLHHNVDIKQMKLTDDSVYLPLERGLWGKLGRACYYNFVNEFNLSDLNEQ,not failed
5,MLIFGFIGLFFLNIFSLHAQGIVTNKDAQEEFKWALNSYNNGIYDDALLSFKKILSFDPNNLDYHFWTGNVYYRLGYVEEALMEWRNLKDQGYKVPYLRHLISTIEQRRGIFSNYELNFKKLVKVASLDNSIYKRPHGYQITSLRADKYGGYYAANFVGNEILYFDVNNNVNALVKDGFSYLKSPYDVIEANNLLYVTLYSSDEIGVYDKVLGVKRKSIGNKGTKDGELLAPQYMAIDKRNYIYVSEWGNKRVSKFGLEGDFILHFGSRTSGYKGLLGPTGVTYLNENIYVADSLRNTIEVFDTSGNHLYSVFTSIEGIEGLSSDFVGNNVIVSSKDGVYKYSIAKKTITKILKADKMNSKISSSILDANNQMIVSDFNNAKVSVYKSDASLYDSLNVDVRRIIRLGGPKIYVELNVSSKSGLPVVGLKSENFSISNENYYIVNPKVAYNVNASKDINIAVVFDKSSYMKKYDTDQIVGLNALMELSKNKNFSFINATSVPIIDNIESLTNSIRNTSSLGPYSTDAVKTDVSLKLAGSGLMSKSSRRAVVYFSGGILNRKAFEKYSLDTIVSYYKNNDIRFYLILFGNDPINSKLQYLVNETGGAVIPFSSYEGVSKVYDLILEQKTGTYLLEYYYPGPQEPNKYFNLSVEANINQQTGRGEFAYFINLEHHHHHH,failed
6,MGAIQFQTAPKLPVTVLLAAKNEAVNLPRCLAALGPAERVIVLDSHSTDATAEIARQHGAEVAQFDYRGGYPKKRQWALDTIPFGTPWILLLDADEVVPEDLWKEIGNVTRQPDADAYLITKGFHFLGRKFKHGGFSHSAVLLFKTGMARFEKLFDDDLNGLDMEIHERVVVDGRIGKLKTPLVHEDFKGLEAYITRHNKYSTWEAKVRHHYLTTGRYGEQTIKPRLFGNSQERRRFLKALIIRLPFEPQIWFIYHYLLRLGFLEGRPGLIASQIRAAYIAQARAKIYELRLNTPSRLEHHHHHH,failed
7,SESGFTSKDTYLSHFNPRDYLEKYYKFGSRHSAESQILKHLLKNLFKIFCLDGVKGDLLIDIGSGPTIYQLLSACESFKEIVVTDYSDQNLQELEKWLKKEPEAFDWSPVVTYVCDLEGNRVKGPEKEEKLRQAVKQVLKCDVTQSQPLGAVPLPPADCVLSTLCLDAACPDLPTYCRALRNLGSLLKPGGFLVIMDALKSSYYMIGEQKFSSLPLGREAVEAAVKEAGYTIEWFEVISQSYSSTMANNEGLFSLVARKLSRPL,failed
8,MQAFRAPSLATIDDVCGTRADGYDGAPLRSIPDFAVIVPMHNEEASVETLVAEIVTACQPVGQFEIVVVDDASSDRTVNAVLSLGDRYPMLRLVRHDRQGGQSAAIHSGVQAARAPVICMLDGDGQNPPDNLPALLAPLLSATATSRLGLVAGQRVGRRDTLGKRLSSRFANGLRARILKDGTRDTGCGLKAFRRDAYLALPYFDHHHRYFPALFNRDGWQVAHVDVTHRARLHGNSHYTNIGRALVGIHDLIGVVWLLRRRKRSSWAETFKTETSPLEHHHHHH,not failed
9,MAKKPAAHATKPKPWTEMATHLVDVAMGRKPADLVIRNGRWVNVHSGEIIAGTDIAIAGGRFAYCGPNASHAIGQGTKVVDAGGRYLVPGLCDAHMHVESGMVTVTEFCRAVIPHGTTSMFIDPHEIANVLGLPGVRLMHDEAVAMPINVHVQMPSCVPSAPGLEHAGAELTVADVAEAMTWENIIGLGEVMNFPGVAANDPVMSGEIAATVRAGKTVGGHYASRDLGLPFHGYVAGGPEDDHEGTRAEDAIARVRQGMKAMLRLGSAWYDVASQIKAVTEGGIDPRNFILCTDDSHSGTLVHEGHMDRVVRHAIQQGLKPVTAIQMATINTAQHFRLEREIGSIAPGRLADLLIVSDLAAMTIDEVYARGVRLAKGGKLDIDIPAYDYPKTAKNTVKLGKKLRAGDFDITAPKGANEVRVRVIGVIENQAPTRALEADLPVEDGLVAMDRRNDVCQIALVERHRGTGGVTNAFVSGFGYMGDCAMASSVAHDAHHIICVGTNKQDMALAVNRLGQVGGGVVLFSKGKELALVEMPIAGLMSDERAEIVAAKAEKLTEAMRKMGCSLNNAYMQHSLLALVVIPELRISDVGLIDVTTFQKVDLFV,failed
10,MGSSGDLANSAERKLDDEKKRCDWRFTDNTPLIAACLLTGAVVLGVHYISICKDRTDISLPTLMESIESKCRSLGDAFNASAPESVLHPVPTQIGVAIWVAREEWSLPVHDTLDRIEKVVSGAGNRKQQFIQRIVRVSQLGSDGNLEKSSSSSTKWGGSSKVSQDPLANAAIKQQLGLSVAKHAYAVSLKEELLMHTISFFAAPPSAAKSVRCFLFDDKRAYCTVSTEMGMETTKREVEAAVATLLANWLEIENFRDANATQRWAMMRKVRGCHYALRALRQLKMSVDAHPEMPVPEGVRGAADRLEKLVRESDFAKLARAAADLQFHQLLLPQIYIPWDQAVVNHLSILMPVYGVITLAVRLIKENRKRAQVVQNS,failed
11,MKEEIVNERQCETEDEKIDIQQLLFKYIIHWPWFVGAVLVCLIGAWIYLRMATPVYNISATVLIKDDKKGGNTGSMVGLEELGLSGLISSSQNIDNELEVLRSKTLVKEVINLLNLYVSYTDEDGFPSKNMYKTSPVLVSLTPQEAEKLTDPMVVEMALYGEGGLEVNVTVGDKEYQKHFEKLPAVFPMDEGTLAFFQSPDSLSLKKDTMEASSNIRHITAKIKSPMKVARAYCENLKIEPTSKTTSVAVISLKNSSLQRGQDFINQLLEMYNRNTNNDKNEIAQKTAEFIDERINIISKELGSTEANLENFKRNAGITDLTSEAQIALTGNAEYEKKRVENRTQISLIEDLRKYIRGNEYEVLPGNIGLQDPGLVATIERYNEMLVERKRLLRTSTENNPTIINLDTSIRAMKSNVQATLDGSLKGLLITKADLEREASRFSRRISDAPGQERQFVSIARQQEIKAGLYLMLLQKREENAIALAATANNAKIIDEAIADDIPVSPKRRMIYLIALVLGIGIPVGIIYLIGLTKFKLEGRADVEKLTTIPIVGDIPLTDEKNEKDGSIAVFENQNNLMSETFRNIRTNLQFMLQNDKKVILVTSTVSGEGKSFISANLAISLSLLGKKVVIVGLDIRKPGLNKVFRLSTKEKGITLYLANPETDLMSLVQPSDINQNLYILPGGTVPPNPTELLARDGLDKAIEILKKNFDYVILDTAPVGMVTDTLLIGRVADLSVYVCRADYTHKVEYTLINELAEEKKLPNLCTVINGVDLKRRKYGYYYGYGKYGKYYGYGKRYGYGYGYGQEKGAKS,failed
12,MASQVTAGSSGPVCFLTVGLRLPSARGQPVVSNFNQPRPPQRQRWVDSLLGVSLVALVVAAALPLLLPLVRLPGGSSARDRELAAAQATAFQTVLQRDPDNLSALRSLIGVYLQQQQLQAAIAPLQRLARLQPQQPAYRVLLAQTQAQLGDREAAAQTYRQILETAPTNLEALRGFTQLLLTQKQPTAAVDLLQKARQTDKITPADQVSIDLMLAQVYANQGQIDDAIALYDRSAQNNGRDFRPLLAKALLLKQQGDLQKATPIFQEAIAIAPAQYRDQIRQLSPASMPATPPTQPATKTPPTAPPPPPN,failed
